In patent publication US20240043504A1 (published 2024):

T1: MERS-CoV Spike Protein S2 (aa 726-1296, His Tag) (Sino 40070-[change]) (MERS-CoV, UniProt K9N5Q8 726-1296)
T1 sequence: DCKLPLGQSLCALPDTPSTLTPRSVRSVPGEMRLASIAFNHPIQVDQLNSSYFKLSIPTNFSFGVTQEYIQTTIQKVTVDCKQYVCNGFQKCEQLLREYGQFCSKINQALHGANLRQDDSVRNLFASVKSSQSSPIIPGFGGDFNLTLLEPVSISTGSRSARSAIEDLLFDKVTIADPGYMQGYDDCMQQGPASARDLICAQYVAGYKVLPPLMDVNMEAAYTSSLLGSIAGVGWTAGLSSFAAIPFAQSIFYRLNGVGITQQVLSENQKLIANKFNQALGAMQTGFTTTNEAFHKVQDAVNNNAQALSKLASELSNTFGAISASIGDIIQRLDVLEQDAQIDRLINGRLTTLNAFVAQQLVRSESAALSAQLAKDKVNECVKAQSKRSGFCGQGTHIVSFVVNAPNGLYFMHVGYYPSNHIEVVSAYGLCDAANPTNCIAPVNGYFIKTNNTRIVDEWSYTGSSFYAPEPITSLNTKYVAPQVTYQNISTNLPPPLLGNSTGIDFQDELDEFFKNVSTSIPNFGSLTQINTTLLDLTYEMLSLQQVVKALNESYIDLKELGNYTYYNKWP

T2: MERS-CoV Spike Protein (ECD, aa 1-1297, His Tag) (Sino 40069-[change]) (MERS-CoV, UniProt K9N5Q8 18-1297)
T2 sequence: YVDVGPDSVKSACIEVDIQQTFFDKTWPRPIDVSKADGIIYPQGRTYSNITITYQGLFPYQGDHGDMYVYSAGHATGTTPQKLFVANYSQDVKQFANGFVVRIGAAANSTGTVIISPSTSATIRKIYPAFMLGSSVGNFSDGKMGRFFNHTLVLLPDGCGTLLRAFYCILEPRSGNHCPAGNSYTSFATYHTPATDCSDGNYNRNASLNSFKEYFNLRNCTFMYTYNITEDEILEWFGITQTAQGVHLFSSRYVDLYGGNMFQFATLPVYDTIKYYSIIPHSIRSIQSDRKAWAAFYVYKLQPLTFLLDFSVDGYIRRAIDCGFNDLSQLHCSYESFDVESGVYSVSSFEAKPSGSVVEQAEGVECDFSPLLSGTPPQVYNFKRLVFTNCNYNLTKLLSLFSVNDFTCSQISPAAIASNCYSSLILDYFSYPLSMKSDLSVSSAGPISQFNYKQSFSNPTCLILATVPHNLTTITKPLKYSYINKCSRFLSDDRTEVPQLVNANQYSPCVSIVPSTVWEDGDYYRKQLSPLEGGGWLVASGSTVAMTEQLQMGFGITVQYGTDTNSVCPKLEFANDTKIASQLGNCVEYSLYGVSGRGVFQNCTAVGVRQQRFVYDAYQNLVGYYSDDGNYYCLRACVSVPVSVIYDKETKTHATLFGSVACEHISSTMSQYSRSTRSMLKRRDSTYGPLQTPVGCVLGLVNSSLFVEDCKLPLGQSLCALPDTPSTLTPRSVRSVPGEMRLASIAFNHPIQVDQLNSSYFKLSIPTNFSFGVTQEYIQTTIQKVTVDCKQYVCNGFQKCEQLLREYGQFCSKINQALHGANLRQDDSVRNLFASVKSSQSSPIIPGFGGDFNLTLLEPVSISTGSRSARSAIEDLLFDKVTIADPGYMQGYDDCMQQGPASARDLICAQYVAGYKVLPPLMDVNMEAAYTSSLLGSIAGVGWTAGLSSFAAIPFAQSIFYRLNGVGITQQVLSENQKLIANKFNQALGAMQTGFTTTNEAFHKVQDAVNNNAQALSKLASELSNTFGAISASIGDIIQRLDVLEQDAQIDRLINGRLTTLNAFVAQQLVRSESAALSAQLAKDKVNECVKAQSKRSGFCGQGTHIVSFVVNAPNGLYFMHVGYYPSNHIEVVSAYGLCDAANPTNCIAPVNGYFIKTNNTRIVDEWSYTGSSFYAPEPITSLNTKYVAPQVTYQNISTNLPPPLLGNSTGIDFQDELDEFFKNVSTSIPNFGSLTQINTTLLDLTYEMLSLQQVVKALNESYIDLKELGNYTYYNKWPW

T3: MERS-CoV (NCoV/Novel coronavirus) Spike Protein fragment (RBD, aa 367-606, His Tag) (Sino 40071-V08B1) (MERS-CoV, UniProt K9N5Q8 367-606)
T3 sequence: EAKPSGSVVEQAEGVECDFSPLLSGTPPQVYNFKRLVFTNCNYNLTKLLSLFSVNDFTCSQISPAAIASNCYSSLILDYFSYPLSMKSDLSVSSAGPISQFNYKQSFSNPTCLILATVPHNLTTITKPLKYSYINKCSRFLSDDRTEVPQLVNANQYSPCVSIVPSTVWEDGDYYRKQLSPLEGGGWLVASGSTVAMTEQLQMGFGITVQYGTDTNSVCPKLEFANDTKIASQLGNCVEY

T4: MERS-CoV (NCoV/Novel coronavirus) Spike Protein S1 Protein (aa 1-725, His Tag) (Sino 40069-V08B1) (MERS-CoV, UniProt K9N5Q8 18-725)
T4 sequence: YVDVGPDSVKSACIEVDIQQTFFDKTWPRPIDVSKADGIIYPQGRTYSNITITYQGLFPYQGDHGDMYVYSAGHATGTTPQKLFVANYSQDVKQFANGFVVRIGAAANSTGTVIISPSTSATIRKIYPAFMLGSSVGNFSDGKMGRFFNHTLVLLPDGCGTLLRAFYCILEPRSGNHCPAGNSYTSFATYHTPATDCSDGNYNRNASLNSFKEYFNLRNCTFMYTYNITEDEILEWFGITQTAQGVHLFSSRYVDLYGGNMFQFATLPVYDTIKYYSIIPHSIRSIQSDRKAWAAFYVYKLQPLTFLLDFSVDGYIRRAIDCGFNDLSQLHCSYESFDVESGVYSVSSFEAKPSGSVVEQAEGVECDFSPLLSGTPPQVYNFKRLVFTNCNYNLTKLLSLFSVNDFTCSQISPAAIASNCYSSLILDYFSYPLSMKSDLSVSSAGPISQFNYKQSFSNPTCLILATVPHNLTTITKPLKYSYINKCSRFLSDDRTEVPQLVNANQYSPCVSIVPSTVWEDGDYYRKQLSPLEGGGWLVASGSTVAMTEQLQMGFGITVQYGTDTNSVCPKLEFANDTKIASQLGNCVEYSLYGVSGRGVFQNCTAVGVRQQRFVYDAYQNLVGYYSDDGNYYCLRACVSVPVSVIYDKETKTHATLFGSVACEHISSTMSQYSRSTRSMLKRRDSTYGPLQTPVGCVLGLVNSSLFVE


Tests used:
Assay in all cases: Luminex, supernatant
[1] = biological target: T1, MERS-CoV Spike Protein S2 (aa 726-1296, …)
[2] = biological target: SARS-CoV-2 Spike Protein (RBD)(R319-F541).hFc (SARS-CoV-2)
[3] = biological target: Human SARS Coronavirus Spike S1 Subunit Protein (His Tag) (Sino 40150-V08B1) (Human SARS Coronavirus, UniProt P59594 14-667)
[4] = biological target: T2, MERS-CoV Spike Protein (ECD, aa 1-1297, …)
[5] = biological target: T3, MERS-CoV (NCoV/Novel coronavirus) Spike …
[6] = biological target: SARS-CoV-2 Spike Protein (RBD)(R319-F541).mFc (SARS-CoV-2)
[7] = biological target: T4, MERS-CoV (NCoV/Novel coronavirus) Spike …

Binder | MFI [1] | MFI [2] | MFI [3] | MFI [4] | MFI [5] | MFI [6] | MFI [7]
mAb10937 (antibody, V domains shown) VH: QITLKESGPTLVKPTQTLTLTCTFSGFSLSTNVVGVGWIRQPPGKALEWLALIYWNDDKRYSPSLKSRLTITKDTSKNQVVLTMTNMDPVDTATYYCAHGPTGDYFDYWGQGTLVTVSS VL: not shown | 26 MFI | 34600 MFI | 21 MFI | 19 MFI | 27 MFI | 34200 MFI | 22 MFI
mAb10985 (antibody, V domains shown) VH: EVQLVESGGGLVQPGRSLRLSCAASGFTFDDYAMHWVRQAPGKGLEWVSGISWNRGSIGYADSVKGRFTISRDNAKNSLYLQMSSLRAEDTALYYCAKDGERWDSVVVPSARNGMDVWGQGTTVTVSS VL: QSVLTQPPSVSGAPGQRVTISCTGSSSNIGAGYDVHWYQQLPGTAPKLLIYGNSNRPSGVPDRFSGSKSGTSASLAITGLQAEDEADYYCQSYDSSLSGSYVFGTGTKVTVLG | 28 MFI | 31100 MFI | 22700 MFI | 18 MFI | 31 MFI | 29400 MFI | 22 MFI
mAb10986 (antibody, V domains shown) VH: EVQLVESGGGLVQPGGSLRLSCAASEFTVSSNYMSWVRQAPGKGLEWVSVIYSGGSTFYADSVKGRFTISRDNSKNTLYLQMNSLRAEDTAVYYCARALPYGDLHFDYWGQGTLVTVSS VL: QSVLTQPPSVSGAPGQRVTISCTGSSSNIGTGYDVHWYQQLPGTAPKLLIYGNTNRPSGVPDRFSGSKSGTSASLAITGLQAEDEADYYCQSYDSSLSDSYVFGTGTKVTVLG | 19 MFI |  | 21 MFI | 15 MFI | 27 MFI | 28400 MFI | 20 MFI
mAb10936 (antibody, V domains shown) VH: QVQLVESGGGVVQPGRSLRLSCAASGFTFRNYGMHWVRQAPGKGLEWVSVIWYDGSNRYYADSVKGRFTISRDTSKNTLYLQMNSLRAEDTAVYYCARDPPITGTTGGDAFDIWGQGTMVTVSS VL: not shown | 21 MFI | 33900 MFI | 20 MFI | 19 MFI | 29 MFI | 33700 MFI | 20 MFI
mAb10913 (antibody, V domains shown) VH: EVQLVESGGGLVQPGGSLRLSCAASGFTFRNYEMNWVRQAPGKGLEWVSYITSSGSTMYYADSVKGRFTISRDNAKNSLYLQMNSLRAEDTAVYYCARDGFYYYYAMDVWGQGTTVTVSS VL: QSVLTQPPSVSAAPGQKVTISCSGSSSNIGNNYVSWYQQLPGTAPKLLIYDNNKRPSGIPDRFSGSKSGTSATLGITGLQTGDEADYYCGTWDSSLSVGRVFGTGTKVTVLG | 26 MFI | 31900 MFI | 21 MFI | 20 MFI | 34 MFI | 33000 MFI | 26 MFI
mAb10914 (antibody, V domains shown) VH: EVQLVESGGGLVQPGGSLRLSCAASGLIVSRNYMIWVRQAPGKGLEWVSVIYSGGSTFYADSVKGRFTISRHNSKNTLYLQMNSLRAEDTAVYYCARDLGTGGMDVWGQGTTVTVSS VL: DIQLTQSPSFLSASVGDRVTITCWASQGISSYLAWYQQKPGKAPKLLIYAASTLQSGVPSRFSGSGSGTEFTLTISSLQPEDFATYYCQQLNSYPLTFGGGTKVEIKR | 28 MFI | 30500 MFI | 22 MFI | 19 MFI | 31 MFI | 30700 MFI | 23 MFI
mAb10934 (antibody, V domains shown) VH: not shown VL: DIQMTQSPSSLSASVGDRVTITCQASQDIWNYINWYQQKPGKAPKLLIYDASNLKTGVPSRFSGSGSGTDFTFTISSLQPEDIATYYCQQHDDLPPTFGQGTKVEIKR |  | 35800 MFI |  | 15 MFI | 24 MFI | 34300 MFI | 20 MFI
